# Results as given in patent US10435681B2, “Compounds and methods for stabilizing thrombin activity” (Omrix Biopharmaceuticals Ltd., priority 2013, dated 2019).
# How the values were obtained:
# Format in all cases: biochemical
# thrombin [1] = biological target: T1, thrombin (Homo sapiens, UniProt P00734); experiment: Thrombin stability testing: remaining clotting activity of 1000 IU/ml liquid thrombin after storage at 37° C.; conditions: 1000 IU/ml thrombin
# T1 construct: yields the active alpha thrombin molecule which is a 295 amino acid polypeptide (human) composed of a heavy and light chain
# thrombin [2] = biological target: T1, thrombin; experiment: Thrombin inhibition testing: clotting activity of 10 IU/ml thrombin towards fibrinogen in the presence of the additive; conditions: 10 IU/ml thrombin
# Procedure: (§1) Thrombin activity was assessed by clotting time measurements using STart4 Coagulation Instrument (DIAGNOSTICA STAGO™, Asnieres sur Seine, France). The assay is a modification of the European Pharmacopoeia Assay procedure, 1997, 0903, p. 858. Briefly, a calibration curve was prepared by mixing thrombin standard with a fibrinogen solution of 0.1% fibrinogen content (Enzyme Research Laboratories, Ind., USA). Thrombin concentration in the different tested samples was then calculated from the calibration curve by their clotting time (the concentration was extrapolated from the calibration curve).
# For inhibition testing, the clotting activity of 10 IU/ml thrombin was measured in the presence or absence of peptides.
# The assay was carried out as described in Example 1.
# thrombin [3] = biological target: T1, thrombin; experiment: Thrombin stability testing: remaining clotting activity of 1000 IU/ml liquid thrombin after storage at 37° C.; conditions: 0.5 mM peptide, 1000 IU/ml thrombin; for stabilization of thrombin activity (in words): 37° C., 0, 3 and 7 days
# Procedure: Aqueous liquid thrombin, in its purified and concentrated form 1000 international units IU/ml may undergo autolysis at room temperature causing a significant loss of activity e.g. towards a heterologous substrate. E.g. thrombin activity towards a heterologous substrate is reduced when a liquid thrombin formulation is incubated at room temperature for prolonged periods of time (e.g. 72 to 144 hours), inter alia, due to autolytic degradation. The decrease of thrombin activity towards a heterologous substrate in aqueous liquid solution can be assessed by measuring thrombin activity after prolonged periods of time and under permissive temperature (e.g. 37° C.). In the following experiments, the effect of a peptide on the stability of thrombin was studied under different conditions.
# Aqueous liquid purified and concentrated thrombin (1000 IU/ml; equivalent to about 10 μM) was aliquoted and placed in a 37° C. incubator for 3 days (72 hours), 7 days (168 hours) and 14 days (336 hours). Prior to incubation, thrombin samples were spiked with indicated amounts of different tested peptides or with a control thrombin inhibitor: benzamidine or arginine *HCl (“arginine”). Specific peptides, their concentrations, and thrombin inhibitors used are indicated in each Example. Following the incubation period, the samples were frozen at −80° C. until testing the thrombin activity. Just before thrombin activity assay testing, all the samples were thawed and 100-fold diluted into a dilution buffer (0.4% tri-sodium citrate di-hydrate, 0.9% sodium chloride and 1% BSA, pH=7.5) to bring the thrombin concentration in the sample to that within the specifications of the assay (4-10 IU/ml) and to dilute the tested peptides in the sample to a negligible concentration.
# as §1
# For stability testing of 1000IU/ml thrombin following storage with or without peptides, testing was carried out as described above. Dilutions (1:100) were carried out before measuring the activity.
# All of these peptides (“mutant gamma loop peptides” identified in Example 3, random peptides, thrombin derived peptides, and “gamma loop binding peptides” mentioned above) were tested for their ability to stabilize thrombin activity at a concentration of 0.5 mM as described in Example 2.
sequence,measurement,setting,value
"GNLKETWTANVGKGQPS [SEQ ID NO:2, gamma loop peptide with flanking amino acids on N- and C-termini]",stabilization of thrombin activity (in words),"thrombin [1]; 0.1 mM peptide, 144 hours at 37° C.",stabilization detected
same,stabilization of thrombin activity (in words),"thrombin [1]; 0.2 mM peptide, 72 hours at 37° C.",already evident
same,effect on thrombin activity (in words),thrombin [2]; 0.2 mM peptide,not significantly affected
same,remaining thrombin activity in presence of peptide,"thrombin [2]; 0.5 mM peptide, FIG. 2D",about 80%
same,stabilization of thrombin activity (in words),thrombin [3],capable of stabilizing liquid aqueous thrombin
same,stabilization of thrombin activity (in words),thrombin [3]; listed as SEQ ID NO: 2,efficient stabilization of thrombin activity
same,thrombin stability (in words),"thrombin [3]; 72 and 144 hours at 37° C., FIG. 2C",an increase in thrombin stability was observed
